This is an account of results in patent US20200055937A1 (REMD BIOTHERAPEUTICS, published 2020).

One assay has as its target T1, murine CTLA-4 (murine, UniProt P09793 36-161, limits assumed).
T1 construct: ELISA antigen; construct not described; also called mouse CTLA-4
Kind of assay: ELISA, murine CTLA-4 binding assay. Background: ELISA stands for enzyme-linked immunosorbent assay.

Assay [1] addresses T2, human CTLA-4 (human, UniProt P16410 36-161, limits assumed).
T2 construct: also called HuCTLA-4; human cytotoxic T lymphocyte antigen-4
T2 sequence: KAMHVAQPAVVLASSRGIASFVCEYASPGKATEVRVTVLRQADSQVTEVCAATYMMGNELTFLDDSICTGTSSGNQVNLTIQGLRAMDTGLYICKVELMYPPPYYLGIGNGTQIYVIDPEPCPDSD
Kind of assay: ratio of the IC50 for blocking CD80 to the IC50 for blocking CD86 on CTLA-4.

Assay [2] deals with T2, human CTLA-4. As to the kind of experiment: ligand blocking assay with purified proteins; competitor CD80; CD80 as competing ligand, purified proteins.
Assay [3] has as its target T2, human CTLA-4. As to the kind of experiment: ligand blocking assay with purified proteins; competitor CD86.
The target of assay [4] is T2, human CTLA-4. Kind of assay: ELISA, human CTLA-4 binding.
For a further assay, the target named is T3, cyno Macaque CTLA-4 (cyno Macaque, UniProt G7PL88 36-161).
T3 construct: ELISA antigen; construct not described; also called CynoCTLA-4; cyno CTLA-4
T3 sequence: T2 sequence with S14N, I18T, L106M
Kind of assay: ELISA, cyno CTLA-4 binding.

The target of another assay is T4, CTLA4-Fc (UniProt P16410 36-161, limits assumed).
T4 sequence (looked up): T2 sequence
Kind of assay: cell-based or functional assay.

Changes are numbered by the printed parent chain.

B1: MAb A1 (16A9E9) (antibody, V domains shown)
VH: DVQLQESGPGLVKPSQSLSLTCSVTGDSITSGYYWNWIRQFPGNKLEWMGYISYDGINNYYPSLENRISITRDTSRNQFFLKLNSVTTEDTATYYCAREVVTPGVEVPAWYFDVWGTGTTVTVSS
VL: DIVLTQSPTSLTVSLGQRAIISCKASQSVSFAGTGLMHWYQQKPGQQPKLLIYRASNLEAGVPTRFSGSGSRTDFTLNIHPVEEDDAATYYCQQSREYPWTFGGGTTLEIN
notes: also called murine antibody A1
With B1, the binding result in the assay with murine CTLA-4 is recorded as “no binding”. Moreover, the “CD80/CD86 Blocking Ratio” value in the assay with human CTLA-4 [1] was 6.49. The IC50 – broadly, the concentration that gives 50% inhibition – with human CTLA-4 [2] was determined as 2.37 nM; in the assay with human CTLA-4 [3], 0.365 nM. In addition, the values for the EC50 with human CTLA-4 [4] and with cyno Macaque CTLA-4 were 0.058 nM and 0.01 nM, respectively. For the same molecule, in the assay with CTLA4-Fc, the “IC50 (nM), IL-2 secreted by Jurkat cells co-cultured with CHO/CD80 cells, Experiment 1” value was determined as 19.3 nM. In the assay with CTLA4-Fc, the “IC50 (nM), IL-2 secreted by Jurkat cells co-cultured with CHO/CD80 cells, Experiment 2” value stood at 18.5 nM.
